Measurements: the supplement of paper PMC9170038

Tested on: MS2 coat protein
Assay: apparent KD of MS2 coat protein; designed switch direction (-1 OFF switch, 1 ON switch): -1; higher = weaker reporter binding
Summary of the method: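 For each design, the apparent KD is the median over clusters of curves fitted to normalised cluster fluorescence. Clusters held RNA switches with common flanks, transcribed on Illumina chips by stalled E. coli RNA polymerase. These were titrated with SNAP-549-labelled MS2 coat protein, doubling from 0.7 or 1.5 nM to 3 µM, without input, with 200 uM small-molecule ligand, or with an oligonucleotide input.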

[1] = input ligand: microRNA oligo, concentration not stated
[2] = Eterna round: R95, input ligand: FMN 200 uM
[3] = Eterna round: R95, input ligand: microRNA oligo, concentration not stated
[4] = Eterna round: R95, input ligand: none

Sequence: ACAUGAGGAUCACCCAUGUCUGGCUGGUCCGCUCCGGCUGUUGAGGAUAUAGUUCGGUGUUCGCGCUAGAAGGUGAGGGCUGGC [Aenatbe mod 36] (Eterna round: R96, puzzle: Exclusion NG 3)
- apparent KD of MS2 coat protein (input ligand: FMN 200 uM): 27.7 nM
- apparent KD of MS2 coat protein [1]: 24.4 nM
- apparent KD of MS2 coat protein (input ligand: none): 38.8 nM

Sequence: UACCUGAGGCAAAGCUUUAGGUAAACAUGAGGAUCACCCAUGUAGGAUAUGGUAGGCUUUGCUUACCAGAAGGACAUGUUAAUU [Mat - Exclusion NG 3 - Mod of JL - D33] (Eterna round: R96, puzzle: Exclusion NG 3)
- apparent KD of MS2 coat protein (input ligand: FMN 200 uM): 215 nM
- apparent KD of MS2 coat protein [1]: 41.9 nM
- apparent KD of MS2 coat protein (input ligand: none): 59.7 nM

Sequence: AGGUGCUUCAGGAGACAUGAGGAUCACCCAUGUUGAGUUAGCGAGGAUAUCGGUAACCAUUGUGAUGAGAAGGCGCAAACCAGA [Ex NG3 #44] (Eterna round: R96, puzzle: Exclusion NG 3)
- apparent KD of MS2 coat protein (input ligand: FMN 200 uM): 60.5 nM
- apparent KD of MS2 coat protein [1]: 15.6 nM
- apparent KD of MS2 coat protein (input ligand: none): 47.3 nM

Sequence: AACCUACAUGAGGAUCACCCAUGUGAGGAUAUAUUGUUAUUUAUAAUAUUUUUUAGUGGUAGAAGGCGCGUGAU [JR_Exc1_Sub019] (Eterna round: R97, puzzle: Exclusion 1)
- apparent KD of MS2 coat protein (input ligand: FMN 200 uM): 21 nM
- apparent KD of MS2 coat protein (input ligand: none): 18.5 nM

Sequence: GAUCAUGCAGGAUAUACAGUAACCAUGAAAACAUGGAUCAAACAUGAGGAUCACCCAUGUAGAAGGGCAUGAUC [Omei Ex2 A22] (Eterna round: R97, puzzle: Exclusion 2)
- apparent KD of MS2 coat protein (input ligand: FMN 200 uM): 38.8 nM
- apparent KD of MS2 coat protein (input ligand: none): 18.2 nM

Sequence: AAAGGGUGAGGAUAUCCAUCUGGAUCAGACUAGAUCCUGAUGGAGAAGGCACAUGAGGAUCACCCAUGUGAGUU [Eli 4x 4.33] (Eterna round: R97, puzzle: Exclusion 4)
- apparent KD of MS2 coat protein (input ligand: FMN 200 uM): 112 nM
- apparent KD of MS2 coat protein (input ligand: none): 99.2 nM

Sequence: CUAGUCCGAGGAUAUAUUAUGUGAAACAUGAGGAUCACCCAUGUAAUAUGAUGGAAAUAAAUAGAAGGCGGACUAG [Mat - Exclusion 5 - JL mod - D33] (puzzle: Exclusion 5)
- apparent KD of MS2 coat protein [2]: 25.7 nM
- apparent KD of MS2 coat protein [3]: 30.9 nM
- apparent KD of MS2 coat protein [4]: 30.2 nM

Sequence: UUUAAUUGUCAGAUGGGUGACAUGAGGAUCACCCAUGUCACAAGCUUUUUGCUCGUCUUAUAAUUAACCCAUCUGAC [Stov1/11-A1] (Eterna round: R97, puzzle: Sensor, turn-off variant 1)
- apparent KD of MS2 coat protein (input ligand: FMN 200 uM): 13.5 nM
- apparent KD of MS2 coat protein (input ligand: none): 12.3 nM

Sequence: AGCUGUGGCCGAGGAUAUCACAUGAGGAUCACCCAUGUACAUGAUUAGGCCUGGUAACAGGCUCGUGAGAAGGCGGUCUCAGCA [Eli eng2 - 010] (Eterna round: R96, puzzle: Exclusion NG 2)
- apparent KD of MS2 coat protein (input ligand: FMN 200 uM): 26.7 nM
- apparent KD of MS2 coat protein [1]: 31.1 nM
- apparent KD of MS2 coat protein (input ligand: none): 37.6 nM

Sequence: CUCUCUCAUGUGAGGAUAUCGAGGCAGUCCGCAAACGAGAAGGUACAUGAGGAUCACCCAUGUCAACAGUAAUG [BmEX4 C.8] (Eterna round: R97, puzzle: Brourd's mod of Exclusion 4)
- apparent KD of MS2 coat protein (input ligand: FMN 200 uM): 143 nM
- apparent KD of MS2 coat protein (input ligand: none): 33 nM

Sequence: GCAAGCUUAAUCACUAUGAACAUGAGGAUCACCCAUGUAUAAGGUAAUACUUUUGGGCCCUUUAUUACUCGUCUUAU [JR_STOV1_Sub030] (Eterna round: R97, puzzle: Sensor, turn-off variant 1)
- apparent KD of MS2 coat protein (input ligand: FMN 200 uM): 61.3 nM
- apparent KD of MS2 coat protein (input ligand: none): 80.3 nM

Sequence: CCAACAAGCUUUUUGCUCGACAUGAGGAUCACCCAUGUAAAAUGGGUAAAUUUAAAUUUAAAUUUAUUUAAAUUUGG [-16.3, -42.5 kcal, A 35%] (Eterna round: R97, puzzle: Sensor, turn-off variant 1)
- apparent KD of MS2 coat protein (input ligand: FMN 200 uM): 505 nM
- apparent KD of MS2 coat protein (input ligand: none): 728 nM

Sequence: UUUAGUUUAGGAUAUGUAGACAUUAACAUGAGGAUCACCCAUGUAGAUCCUGAAUUGGCUACAGAAGGAAGCAUUU [Mod of Brourd 11 - Jieux - Exclusion 5] (Eterna round: R97, puzzle: Exclusion 5)
- apparent KD of MS2 coat protein (input ligand: FMN 200 uM): 168 nM
- apparent KD of MS2 coat protein (input ligand: none): 354 nM

Sequence: CGUAUGUCAGGAUAUCGUGCAUACAACGAAAGUUCUAUGUGCGAGAAGGGACAUGAGGAUCACCCAUGUUUACG [Omei Ex4 A12] (Eterna round: R97, puzzle: Exclusion 4)
- apparent KD of MS2 coat protein (input ligand: FMN 200 uM): 89 nM
- apparent KD of MS2 coat protein (input ligand: none): 26.1 nM

Sequence: GCGGAUCUAGGAUAUACAUGAGGAUCACCCAUGUAAACUCUCUUGGAUGACUACUAUUGUAGAAGGAGAUAAGC [Erlabeedle] (puzzle: Exclusion 3)
- apparent KD of MS2 coat protein [3]: 24.4 nM

Sequence: AGUACUAACACGAAAGUGUUAGUACAAUAAGCUUGUAAAACAUGAGGAUCACCCAUGUCCUCAUAAGCUCGUCUUAU [Mat - Sensor v3 - Turn-off var 2 - D47] (puzzle: Sensor v3, turn-off variant 2)
- apparent KD of MS2 coat protein [2]: 250 nM
- apparent KD of MS2 coat protein [3]: 11.5 nM
- apparent KD of MS2 coat protein [4]: 446 nM

Sequence: UACAUGAGGAUCACCCAUGUUUUGUCGUGUAUGGUAUUUAUCUAGGAUAUCAAUUUGGUUAUUUAUGAGAAGGAGAAUAUUAAU [JMF's solution 66] (Eterna round: R96, puzzle: Exclusion NG 3)
- apparent KD of MS2 coat protein (input ligand: FMN 200 uM): 48.9 nM
- apparent KD of MS2 coat protein [1]: 31.6 nM
- apparent KD of MS2 coat protein (input ligand: none): 37.2 nM

Sequence: GGUUGCGCAGGAUAUACAUGAGGAUCACCCAUGUGAGAGAAAUAAGUGAGGAAGAAAAGUAGAAGGGCGUGACG [Mat - Exclusion 3 - Mod of Salish D72] (puzzle: Exclusion 3)
- apparent KD of MS2 coat protein [2]: 170 nM
- apparent KD of MS2 coat protein [3]: 37.7 nM
- apparent KD of MS2 coat protein [4]: 68.9 nM

Sequence: GAACUCGUGAAGGAUAUCCGUACCAAAGCGGCAGGAGAAGGUCACACAUGAGGAUCACCCAUGUGGUACCUCGU [Xeinbira] (puzzle: Exclusion 6)
- apparent KD of MS2 coat protein [2]: 80.1 nM
- apparent KD of MS2 coat protein [3]: 27.4 nM
- apparent KD of MS2 coat protein [4]: 25.1 nM

Sequence: AGCCAUGAAGGAUAUACAUGAGGAUCACCCAUGUUGCGGACAGGUUUGAUCGGCGUAGGUAGAAGGUCAAGUAG [Eternabot (L2) Solution 62] (Eterna round: R97, puzzle: Exclusion 3)
- apparent KD of MS2 coat protein (input ligand: FMN 200 uM): 28.2 nM
- apparent KD of MS2 coat protein (input ligand: none): 22.1 nM

Sequence: CAGCGACAUGAGGAUCACCCAUGUGGCUUCGUUCCCGCUGGCAAGGAUAUCCAGUCUUCGUGAGAGGAGAAGGUGCAAAAUAAG [Atveso] (Eterna round: R96, puzzle: Exclusion NG 3)
- apparent KD of MS2 coat protein (input ligand: FMN 200 uM): 65.2 nM
- apparent KD of MS2 coat protein [1]: 31.7 nM
- apparent KD of MS2 coat protein (input ligand: none): 49.3 nM

Sequence: CUGGUCCGAGGAUAUAUAUUGUGAUACAUGAGGAUCACCCAUGUAAUAAUAUGGAUAUAAAUAGAAGGCGGACUAG [Mat - Exclusion 5 - JL mod - D49] (puzzle: Exclusion 5)
- apparent KD of MS2 coat protein [2]: 35.8 nM
- apparent KD of MS2 coat protein [3]: 23 nM
- apparent KD of MS2 coat protein [4]: 27.7 nM

Sequence: AUACUCGUUGUGAGGAUAUCGUUUUCGUCACGGAUCGAGAAGGCACAUGAGGAUCACCCAUGUUUGACGUGAAU [JR_BMOE4_Sub092] (puzzle: Brourd's mod of Exclusion 4)
- apparent KD of MS2 coat protein [3]: 15.4 nM

Sequence: AGUGUGAUAGGAUAUACAUGAGGAUCACCCAUGUGAAUGGUAAUGUGUCCAAGAUCAGGUAGAAGGGUCGGGUU [Eternabot (L1) Solution 56] (Eterna round: R97, puzzle: Exclusion 3)
- apparent KD of MS2 coat protein (input ligand: FMN 200 uM): 83.6 nM
- apparent KD of MS2 coat protein (input ligand: none): 101 nM

Sequence: UCUCAGCCUAAGGAUAUGAGCCGAACCAAAAGUUCAGAAGGUAGGACAUGAGGAUCACCCAUGUGAGCCUACAC [Eternabot (Original) Solution 39] (Eterna round: R97, puzzle: Exclusion 6)
- apparent KD of MS2 coat protein (input ligand: FMN 200 uM): 34.3 nM
- apparent KD of MS2 coat protein (input ligand: none): 21.3 nM

Sequence: CACCUGAAGACAGGAUAUCAUACAUGAGGAUCACCCAUGUAAUAAAUGAGAAUUUCGAAUGUAAUUGAGAAGGGUCAAUAAGGC [Ostricism 96 - Jieux - Exclusion NG 2] (Eterna round: R96, puzzle: Exclusion NG 2)
- apparent KD of MS2 coat protein (input ligand: FMN 200 uM): 58.7 nM
- apparent KD of MS2 coat protein [1]: 31.3 nM
- apparent KD of MS2 coat protein (input ligand: none): 29.2 nM

Sequence: GCUUGUGUUGAGGAUAUGCGCCGGCUCGCUGGCGCAGAAGGCGGCACAUGAGGAUCACCCAUGUCAGUUCGCGG [salish99_ex6_r004_009] (Eterna round: R97, puzzle: Exclusion 6)
- apparent KD of MS2 coat protein (input ligand: FMN 200 uM): 321 nM
- apparent KD of MS2 coat protein (input ligand: none): 93.8 nM

Sequence: ACAAGCUUUUUGUUCGUCUUAUAAUAUUCAAUAAGGAUAACAUGAGGAUCACCCAUGUAACAAAGACGGACUCAUGU [Sesor Array 15 - Jieux - Sensor v3, turn-off variant 2] (puzzle: Sensor v3, turn-off variant 2)
- apparent KD of MS2 coat protein [2]: 17.2 nM
- apparent KD of MS2 coat protein [3]: 133 nM
- apparent KD of MS2 coat protein [4]: 13 nM

Sequence: AUUAUAAAGGCAGGAUAUACAUGAGGAUCACCCAUGUAUAUCCGAUAAUAAUAUAAGUGCCUCAUGUAGAAGGGCCAUUAUAUA [Same State Mistake] (Eterna round: R96, puzzle: Exclusion NG 2)
- apparent KD of MS2 coat protein (input ligand: FMN 200 uM): 11.1 nM
- apparent KD of MS2 coat protein [1]: 8.76 nM
- apparent KD of MS2 coat protein (input ligand: none): 12.4 nM

Sequence: CAGUACUGAGGAUAUACAUGAGGAUCACCCAUGUGUUCCAGCUUGGAAACUAGCAAAAGUAGAAGGCAGUACUG [salish99_ex3_r3_097x] (puzzle: Exclusion 3)
- apparent KD of MS2 coat protein [3]: 16.6 nM

Sequence: UCUCGACAUGAGGAUCACCCAUGUCAGGAUAUUGUAUUAGAGGUUUUUUACCUUAUAACAAGAAGGGAUGUGUG [LRO-Excl1-23] (puzzle: Exclusion 1)
- apparent KD of MS2 coat protein [3]: 23.6 nM

Sequence: CGUGUCUUUUACGUGAGUGGUGGGUGCAACAGGUGGGUUACAUGAGGAUCACCCAUGUGCUCACUUGCUCGUCUUUU [Grok-var2-09] (puzzle: Sensor v3, turn-off variant 2)
- apparent KD of MS2 coat protein [2]: 60.7 nM
- apparent KD of MS2 coat protein [3]: 39.3 nM
- apparent KD of MS2 coat protein [4]: 58.1 nM

Sequence: AUAAAUCAUGUAGGAUAUGCGUGGCGAAGCUAUGCAGAAGGACAUGAGGAUCACCCAUGUGCUUGCGUCUGAGUACAGAUGCUA [Mat - Exclusion NG 1 - Mod of JL - D6] (Eterna round: R96, puzzle: Exclusion NG 1)
- apparent KD of MS2 coat protein (input ligand: FMN 200 uM): 264 nM
- apparent KD of MS2 coat protein [1]: 77.1 nM
- apparent KD of MS2 coat protein (input ligand: none): 91.8 nM
